Target: Chicken skeletal muscle actin, assembled into filaments (F-actin) (chicken) (UniProt P68139)
Assay: TIRF microscopy of labeled protein on actin filaments; four-color TIRFM; 1.5 μM Mg-ATP actin (15% Alexa 488-labeled), 50 nM Fim1 (Alexa 405-labeled), 2.5 μM Cdc8 (TMR-labeled), without or with 500 nM Ain1 (Cy5-labeled); fluorescence on two-filament bundles; room temperature

“acetylation mimic tropomyosin AlaSer-Cdc8, fluorescently labeled (TMR or Cy5) (natural protein)” was tested, and the fold of Cdc8 on F-actin bundles with Fim1 and Ain1 against with Fim1 alone was > 100 fold.
